From PMC5796892 come the findings set out here.

By Kd is commonly meant the concentration at which binding is half-saturated. Higher therefore signals lower affinity.

For assay [1], the target named is MBL-associated serine protease 2 (MASP2), serum-derived (human (endogenous in normal human serum)).
For assay [2] the target is unchanged. This is another data set of the same source.
The target is the same in assay [3]. This is another data set of the same source.
For assay [4] the target is unchanged. This is another data set of the same source.
The target in assay [5] is neutrophil elastase (NE) from human leukocytes (human) (UniProt P08246).
Assay [6] deals with serum-derived MBL-associated serine proteases (MASPs) (human (endogenous in normal human serum)). Briefly: ELISA; normal human serum diluted 1:10 in veronal buffer saline bound to mannan-coated plate (37°C, 2 h), washed; rLdISP1/rLdISP2 0-50 µM added, 37°C, 2 h; bound ISP detected with anti-ISP1 or anti-ISP2 antibody. (In general: An ELISA detects its analyte on a solid surface through an enzyme-linked reagent.)

Assay [7] shares this target. The assay can be described thus: ELISA; normal human serum diluted 1:50 in veronal buffer saline bound to mannan-coated plate (37°C, 2 h), washed; rLdISP1/rLdISP2 0-50 µM added, 37°C, 2 h; bound ISP detected with anti-ISP1 or anti-ISP2 antibody.
For assay [8] the target is unchanged. Briefly: ELISA; normal human serum diluted 1:100 in veronal buffer saline bound to mannan-coated plate (37°C, 2 h), washed; rLdISP1/rLdISP2 0-50 µM added, 37°C, 2 h; bound ISP detected with anti-ISP1 or anti-ISP2 antibody.
The target in assay [9] is C1 complex (C1qr2s2) (human) (UniProt P02745). The assay can be described thus: ELISA; C1 complex at 25 µg/ml bound to human IgM-coated plate (37°C, 2 h); rLdISP1/rLdISP2 0-50 µM added, 37°C, 2 h; bound ISP detected with anti-ISP1 or anti-ISP2 antibody; Kd taken as the free ligand at half saturation.
Assay [10] has the same target. Briefly: ELISA; C1 complex at 50 µg/ml bound to human IgM-coated plate (37°C, 2 h); rLdISP1/rLdISP2 0-50 µM added, 37°C, 2 h; bound ISP detected with anti-ISP1 or anti-ISP2 antibody; Kd taken as the free ligand at half saturation.
For assay [11] the target is unchanged. The assay can be described thus: ELISA; C1 complex at 100 µg/ml bound to human IgM-coated plate (37°C, 2 h); rLdISP1/rLdISP2 0-50 µM added, 37°C, 2 h; bound ISP detected with anti-ISP1 or anti-ISP2 antibody; Kd taken as the free ligand at half saturation.
Assay [12] shares this target. Briefly: ELISA; C1 complex at 12.5 µg/ml bound to human IgM-coated plate (37°C, 2 h); rLdISP1/rLdISP2 0-50 µM added, 37°C, 2 h; bound ISP detected with anti-ISP1 or anti-ISP2 antibody; Kd taken as the free ligand at half saturation.
Assay [13] has the same target. Briefly: ELISA; C1 complex at 6.25 µg/ml bound to human IgM-coated plate (37°C, 2 h); rLdISP1/rLdISP2 0-50 µM added, 37°C, 2 h; bound ISP detected with anti-ISP1 or anti-ISP2 antibody; Kd taken as the free ligand at half saturation.
Assay [14] has the same target. The assay can be described thus: ELISA; C1 complex at 100 µg/ml bound to human IgM-coated plate (37°C, 2 h); rLdISP1/rLdISP2 0-50 µM added, 37°C, 2 h; bound ISP detected with anti-ISP1 or anti-ISP2 antibody; Kd taken as the free ligand at half saturation. This is another data set of the same source.

Sequence of neutrophil elastase (NE) from human leukocytes (human) (P08246 30-267): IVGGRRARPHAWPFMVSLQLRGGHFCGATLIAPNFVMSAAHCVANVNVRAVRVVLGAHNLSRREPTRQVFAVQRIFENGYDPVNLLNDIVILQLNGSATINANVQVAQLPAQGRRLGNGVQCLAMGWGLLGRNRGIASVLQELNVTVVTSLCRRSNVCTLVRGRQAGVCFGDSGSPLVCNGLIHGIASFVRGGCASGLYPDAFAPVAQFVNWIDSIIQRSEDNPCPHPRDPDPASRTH

In the case of “recombinant L. donovani inhibitor of serine peptidases 2 (natural protein)”, the enzyme activity of serum-derived MASP2 (substrate Z-L-Lys-SBzl with DTNB), reduction against untreated serum at 5, 10 and 50 µM rLdISP2 (~30, ~44, ~60%) in [1] was found to be 60%. The C4b formation (C4 cleavage by serum-derived MASPs on mannan plate, sandwich ELISA), fold decrease against control at 10 and 50 µM rLdISP2 (~2.1, ~2.9-fold) in assay [2] amounted to 2.9 fold. Besides, the C3 convertase (C3c) formation by all complement pathways in human serum with promastigotes, fold reduction at 10 and 50 µM rLdISP2 (~1.5, ~2.5-fold) in assay [3] was 2.5 fold. The C3 convertase (C3c) formation by the lectin pathway (lectin pathway-specific serum), fold reduction at 10 and 50 µM rLdISP2 (~2, ~4-fold) in assay [3] amounted to 4 fold. The substance also displayed a C5 convertase (C5c) formation by all three pathways, fold reduction at 10 and 50 µM rLdISP2 (~1.5, ~2.9-fold) in assay [3] of 2.9 fold. The same substance showed a C5 convertase (C5c) formation by the lectin pathway, fold reduction at 10 and 50 µM rLdISP2 (~1.4, ~3.2-fold) in assay [3] of 3.2 fold. For the same substance, the MAC (C5b-9) formation on promastigotes via the lectin pathway, fold decrease against active LPSS at 10 and 50 µM rLdISP2 (~1.5, ~2.3-fold) in [4] stood at 2.3 fold. For the same substance, in [4], the complement-mediated lysis of promastigotes via the lectin pathway, fold reduction at 10 and 50 µM rLdISP2 (~1.8, ~2.5-fold) worked out at 2.5 fold. Also, the C5aR expression (western blot) in macrophages treated with NE pre-incubated with 10 µM rLdISP2, fold increase against control in assay [5] was 2.5 fold. In [5], this substance gave an enzyme activity of NE (50 nM; substrate N-methoxysuccinyl-Ala-Ala-Pro-Val-AMC), reduction at 0.1, 1 and 10 µM rLdISP2 (~49, ~60, ~82%) of 82%. Also, the Ka in assay [6] came out at 830000 M⁻¹; in [7] it was 520000 M⁻¹; in [8], 330000 M⁻¹; in [9], 350000 M⁻¹; in assay [10], 500000 M⁻¹; in assay [11], 760000 M⁻¹. The values for the Ka in [12] and in assay [13] were 310000 M⁻¹ and 280000 M⁻¹, respectively. The dissociation constant (Kd) in [6] stood at 1.2 µM; in assay [7] it was 1.9 µM; in assay [8], 3 µM; in [9] it was 3 µM; in assay [10], 2 µM; in assay [11], 1.3 µM. The Kd in assay [12] was 3.2 µM; in [13], 3.5 µM; in assay [14] it was 1.6 µM.
Regarding “recombinant Leishmania donovani inhibitor of serine peptidases 1 (natural protein)”, in assay [5], the enzyme activity of NE (50 nM; substrate N-methoxysuccinyl-Ala-Ala-Pro-Val-AMC), inhibition at 10 µM rLdISP1 was 27%. The Ka in [6] was 710000 M⁻¹; in assay [7], 450000 M⁻¹; in [8] it was 310000 M⁻¹. Besides, the Kd in assay [6] is 1.4 µM; in assay [7] it was 2.2 µM; in assay [8], 3.2 µM.
